Measurements: PMC5018216 (Nature structural & molecular biology, 2016)
Values joined by “and” are separate entries in the source; they are usually repeats but may differ in a detail not shown here. Equal values may be shown once.

T1: tOmpA, the 8-stranded transmembrane domain of OmpA (UniProt P0A910 22-197)
T1 sequence: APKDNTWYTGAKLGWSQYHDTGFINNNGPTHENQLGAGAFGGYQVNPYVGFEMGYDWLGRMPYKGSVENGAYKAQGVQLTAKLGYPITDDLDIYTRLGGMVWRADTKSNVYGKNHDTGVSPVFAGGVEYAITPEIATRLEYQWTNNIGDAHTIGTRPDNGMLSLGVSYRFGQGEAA

T2: PagP (UniProt P37001 26-186)
T2 sequence (looked up): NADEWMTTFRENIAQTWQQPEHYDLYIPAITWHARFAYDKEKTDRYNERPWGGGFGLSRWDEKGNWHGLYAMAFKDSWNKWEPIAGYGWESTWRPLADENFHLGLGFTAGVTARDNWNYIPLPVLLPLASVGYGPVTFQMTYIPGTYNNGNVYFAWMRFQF

T3: OmpT (E. coli, UniProt P09169 21-317)
T3 sequence (looked up): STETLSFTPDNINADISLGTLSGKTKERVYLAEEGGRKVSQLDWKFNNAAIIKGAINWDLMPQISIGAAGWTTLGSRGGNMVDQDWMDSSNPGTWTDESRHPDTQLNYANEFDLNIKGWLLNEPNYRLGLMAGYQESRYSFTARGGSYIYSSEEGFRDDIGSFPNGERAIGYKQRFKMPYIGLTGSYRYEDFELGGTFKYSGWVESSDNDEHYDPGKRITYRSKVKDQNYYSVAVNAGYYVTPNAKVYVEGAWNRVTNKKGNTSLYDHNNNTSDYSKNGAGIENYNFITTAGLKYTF

T4: OmpF (UniProt P02931 23-362)
T4 sequence (looked up): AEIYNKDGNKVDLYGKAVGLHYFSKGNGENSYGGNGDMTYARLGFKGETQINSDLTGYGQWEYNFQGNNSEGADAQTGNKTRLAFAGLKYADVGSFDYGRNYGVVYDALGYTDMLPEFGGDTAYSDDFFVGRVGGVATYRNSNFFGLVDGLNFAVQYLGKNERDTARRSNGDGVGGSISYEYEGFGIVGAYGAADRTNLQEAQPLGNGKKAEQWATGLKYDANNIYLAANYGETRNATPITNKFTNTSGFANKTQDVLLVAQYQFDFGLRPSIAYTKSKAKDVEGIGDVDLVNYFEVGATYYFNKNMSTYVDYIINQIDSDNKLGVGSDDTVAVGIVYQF

T5: full-length OmpA (UniProt P0A910 22-346)
T5 sequence (looked up): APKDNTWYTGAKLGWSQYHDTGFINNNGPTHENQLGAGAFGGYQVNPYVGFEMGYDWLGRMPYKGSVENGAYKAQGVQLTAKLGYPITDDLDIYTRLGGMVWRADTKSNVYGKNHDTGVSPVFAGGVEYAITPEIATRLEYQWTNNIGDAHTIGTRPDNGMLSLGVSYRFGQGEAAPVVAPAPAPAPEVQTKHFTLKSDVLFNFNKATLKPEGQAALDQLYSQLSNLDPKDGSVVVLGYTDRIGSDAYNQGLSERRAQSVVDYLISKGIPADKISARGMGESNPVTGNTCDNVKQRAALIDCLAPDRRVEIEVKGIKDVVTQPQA


Columns and labels:
[1] = target: T1, tOmpA, the 8-stranded transmembrane …; test: native MS
PagP = target: T2, PagP; test: native MS
OmpT = target: T3, OmpT; test: native MS
OmpF = target: T4, OmpF; test: native MS
[2] = target: tBamA, the 16-stranded transmembrane domain of the BamA OMP insertase (UniProt P0A940 425-810); test: native MS
native MS = target: the molecule itself; test: native MS
full-length OmpA = target: T5, full-length OmpA; test: cross-linking
full-length BamA = full-length BamA (UniProt P0A940 21-810); test: cross-linking

| stoichiometry N [1] | stoichiometry N (PagP) | stoichiometry N (OmpT) | stoichiometry N (OmpF) | stoichiometry N [2] | stoichiometry N (full-length OmpA) | stoichiometry N (full-length BamA) | Binder | binding result (native MS) |
| --- | --- | --- | --- | --- | --- | --- | --- | --- |
| 1 Skp (trimer) per OMP | 1 Skp (trimer) per OMP | ≤ 2 Skp (trimer) per OMP and 1 Skp (trimer) per OMP | 1 Skp (trimer) per OMP and ≤ 2 Skp (trimer) per OMP | 1 Skp (trimer) per OMP and ≤ 2 Skp (trimer) per OMP | – | – | Skp (natural protein, Escherichia coli, UniProt P0AEU7 21-161, looked up) ADKIAIVNMGSLFQQVAQKTGVSNTLENEFKGRASELQRMETDLQAKMKKLQSMKAGSDRTKLEKDVMAQRQTFAQKAQAFEQDRARRSNEERGKLVTRIQTAVKSVANSQDIDLVVDANAVAYNSSDVKDITADVLKQVK | binds |
| – | – | – | – | – | 1 Skp (trimer) per OMP | 2 Skp (trimer) per OMP | His-tagged Skp (natural protein, Escherichia coli) ADKIAIVNMGSLFQQVAQKTGVSNTLENEFKGRASELQRMETDLQAKMKKLQSMKAGSDRTKLEKDVMAQRQTFAQKAQAFEQDRARRSNEERGKLVTRIQTAVKSVANSQDIDLVVDANAVAYNSSDVKDITADVLKQVK | – |
